Reference: PMC10095280
Blank lines part the entries; values can stand above or below the substance they belong to.

Columns and labels:
β-arrestin2 [1] = target: β-arrestin2 (UniProt P32121); test: direct BRET, D1R-Rluc8 and β-arrestin2-mVenus; details: reference: wild type
β-arrestin2 [2] = target: β-arrestin2 (UniProt P32121); test: bystander BRET, β-arrestin2-Rluc2 to membrane GFP-CAAX; details: for percent of reference: reference: wild type
β-arrestin2 [3] = target: β-arrestin2 (UniProt P32121); test: β-arrestin recruitment BRET, type not stated; details: reference: wild type; sites S417,S421,T428,S431,T439,S441,S445,T446
[4] = sites S256,S258,S259,T360,S362,S372,S373,S380,T428,S431,T439,S441,S445,T446

Substance: D1 dopamine receptor (D1R) (from UniProt P18901) GRK-null (14 GRK sites mutated)
- percent of reference (β-arrestin2 [1]; [4]): lost; reference 100
- percent of reference (β-arrestin2 [2]; [4]): lost; reference 100

Substance: D1 dopamine receptor (D1R) (from UniProt P18901) PKC-null
- other: Emax, % of WT D1R (β-arrestin2 [2]; reference: PKC-null + A259S (S259 restored), sites S259): same; reference 59 ± 9.4

Substance: D1 dopamine receptor (D1R) (from UniProt P18901) PKC-null (S259A/S397A/S398A/S417A/S421A)
- percent of reference (β-arrestin2 [2]; sites S259,S397,S398,S417,S421): weaker; reference 100

Substance: D1 dopamine receptor (D1R) (from UniProt P18901) S6A (S362A)
- percent of reference (β-arrestin2 [1]; sites S362): weaker; reference 100

Substance: D1 dopamine receptor (D1R) (from UniProt P18901) Tail Total (all 20 C-terminal S/T mutated)
- percent of reference (β-arrestin2 [1]; sites S342,T343,T353,T354,T360,S362,S372,S373,S380,S382,S397,S398,S417,S421,T428,S431,T439,S441,S445,T446): weaker; reference 100

Substance: D1 dopamine receptor (D1R) T1 truncation, stop after 370 (from UniProt P18901) D1R T1 + T5V/S6A
- other: Emax, % of full-length WT D1R (β-arrestin2 [2]; reference: D1R T1 truncation, sites T360,S362): weaker; reference 112 ± 5.1

The next lines start with the values.

- percent of reference (β-arrestin2 [2]; sites S256,S258,S259): weaker; reference 100
Substance: D1 dopamine receptor (D1R) (from UniProt P18901) S2/S3/S4 mutant (S256A/S258A/S259A)

- percent of reference (β-arrestin2 [3]): weaker; reference 100
Substance: D1 dopamine receptor (D1R) (from UniProt P18901) S13–S20 mutant (8 distal C-terminal S/T mutated)

- percent of reference (β-arrestin2 [1]; sites T360): weaker; reference 100
Substance: D1 dopamine receptor (D1R) (from UniProt P18901) T5V (T360V)

- percent of reference (β-arrestin2 [1]; sites T360,S362): weaker; reference 100
- percent of reference (β-arrestin2 [2]; sites T360,S362): weaker; reference 100
Substance: D1 dopamine receptor (D1R) (from UniProt P18901) T5V/S6A (T360V/S362A)
